We go through one substance from patent US7601489.

Data set [1] deals with HIV-1 reverse transcriptase (heterodimer) (HIV-1) (UniProt P04585+P04585). The following applies: 100% incorporation with Mg2+; 37 C; 50% inhibition at Mn2+:Mg2+ ratio 7e-4.
The target in data set [2] is T1, Ty1 VLP-associated reverse transcriptase (Saccharomyces cerevisiae Ty1 retrotransposon) (UniProt Q07163).
T1 sequence: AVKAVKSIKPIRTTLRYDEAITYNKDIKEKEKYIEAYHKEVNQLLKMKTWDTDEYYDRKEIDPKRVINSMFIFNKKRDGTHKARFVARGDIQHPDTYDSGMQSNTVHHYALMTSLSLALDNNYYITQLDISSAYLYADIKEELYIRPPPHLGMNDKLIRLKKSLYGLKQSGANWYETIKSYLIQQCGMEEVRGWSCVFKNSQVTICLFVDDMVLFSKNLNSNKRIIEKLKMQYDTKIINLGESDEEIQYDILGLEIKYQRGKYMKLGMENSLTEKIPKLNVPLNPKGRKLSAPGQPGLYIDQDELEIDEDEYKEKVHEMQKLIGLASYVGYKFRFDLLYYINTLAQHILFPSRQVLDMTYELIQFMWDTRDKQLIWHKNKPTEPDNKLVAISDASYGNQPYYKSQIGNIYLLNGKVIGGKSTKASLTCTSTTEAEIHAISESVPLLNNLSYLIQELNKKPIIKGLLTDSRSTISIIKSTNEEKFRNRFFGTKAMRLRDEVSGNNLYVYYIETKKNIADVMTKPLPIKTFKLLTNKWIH
The following applies: 100% incorporation with Mg2+; 22 C; 50% inhibition at Mn2+:Mg2+ ratio 8e-3.

The target of data set [3] is T2, Ty1 reverse transcriptase D211N D211N (Saccharomyces cerevisiae Ty1 retrotransposon) (UniProt Q07163).
T2 sequence: T1 sequence
To be noted: 22 C, 20 mM KCl, pH 7.8.

Data set [4] has as its target T3, Ty1 reverse transcriptase (wild-type) (Saccharomyces cerevisiae Ty1 retrotransposon) (UniProt Q07163).
T3 sequence: T1 sequence
The following applies: 22 C, 20 mM KCl, pH 7.8.

Where two headings read alike, the source gives them in different places.

Consider oligo(dG)12-18/poly(rC) primer-template, for which the activity (pmol dGTP/ug RT per 60 min) in data set [1] is 205. In addition, the activity (pmol dGTP/ul VLP per 60 min) in data set [2] was determined as 5. Moreover, the activity came out at 1.6 h⁻¹ in data set [3] (kcat with Mg2+, K0.5 Mg2+ 6.3 mM); 0.57 h⁻¹ in data set [3] (kcat with Mn2+, K0.5 Mn2+ 0.02 mM); 1.61 h⁻¹ in data set [4] (kcat with Mg2+, K0.5 Mg2+ 0.13 mM); 0.56 h⁻¹ in data set [4] (kcat with Mn2+, K0.5 Mn2+ 19.9 mM).
